Measured values: patent US20040175362A1

Molecular target: coxsackie-adenovirus receptor (CAR) (human) (UniProt P78310)
Assay: cell-based or functional assay

Chain of UniProt P78310 (P78310 20-365): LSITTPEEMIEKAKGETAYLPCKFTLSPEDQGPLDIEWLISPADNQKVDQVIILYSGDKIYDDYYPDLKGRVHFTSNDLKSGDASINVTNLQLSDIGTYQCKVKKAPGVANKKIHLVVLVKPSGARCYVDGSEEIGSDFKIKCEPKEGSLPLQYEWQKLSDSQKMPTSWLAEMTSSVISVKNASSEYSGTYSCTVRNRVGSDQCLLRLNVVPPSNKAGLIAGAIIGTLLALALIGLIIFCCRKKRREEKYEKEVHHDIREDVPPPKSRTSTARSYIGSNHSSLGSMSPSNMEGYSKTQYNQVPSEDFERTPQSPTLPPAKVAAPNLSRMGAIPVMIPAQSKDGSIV

Substance	gene expression blocked by recombinant Ad5 fiber knob, Ad5lucRGD on 293 cells [%]	gene transfer blocked by knob protein, Ad5lucRGD on primary ovarian cancer cells, MOI 1 pfu/cell [%]	luciferase activity blocked by purified fiber knob, Ad5lucRGD on SKOV3.1p1 cells [%]	gene transfer blocked by purified fiber knob, AdCMVLuc on SKOV3.1p1 cells [%]	luciferase activity blocked by recombinant Ad5 fiber knob, AdCMVLuc on 293 cells [%]
RGD-modified Ad5 fiber (… in the HI loop of the knob) as carried by the virions of Ad5lucRGD (from UniProt P11818 1-546; P11818 547-581)	40 to 60	20	20	–	–
wild type Ad5 fiber as carried by the virions of AdCMVLuc (from UniProt P11818 1-581)	–	–	–	> 90	85 to 93
